The source of these data is patent publication US8551742B2 (priority 2007, dated 2013).

One data set concerns MetA. In words: In-vitro characterization of purified mutant and wild type MetA enzymes (assay of Lawrence, modified). The class given is biochemical, E. coli. The procedure: PCR was used to amplify and then clone the five metA mutant genes identified as pCL-A#10, pCL-A#11, pCL-A#32, pCL-A#37, and pCL-A#41, into the pET30a vector. All constructs were subjected to DNA sequence analysis to confirm the presence of mutations. The genes were cloned with a C-terminus His tag for enzyme purification. The enzymes were overexpressed, purified and the activity was measured in the presence of different levels of methionine and SAMe, as described by Lawrence, J. Bacteriol., 109:8-11, 1972. The only modifications to the assay were that multiple points were taken and that the reaction was quenched with guanidine.

The test system of data set [1] is MetK. The data set can be described thus: MetK mutants radioactive assay in vitro ([methyl-14C]methionine to SAMe). The class given is biochemical, E. coli. Conditions: 5 minute reaction time; C-terminal His tagged proteins unless untagged. The protocol: The metK gene from E. coli (Accession number AP—003499 or BAE77005) was cloned and overexpressed with either an N-terminal or a C-terminal His tag in pET28b vector. Site directed mutagenesis was performed using the C-terminal His tagged metK clone to generate the desired mutants. Expression of the mutant MetK proteins was confirmed.
The MetK mutants were purified (using the C-terminal His tag) and assayed in vitro. The wild type C-terminal His-tagged MetK protein was used as a control. The mutants were assayed using a radioactive assay. The assay conditions were as follows: • Assay Mix: • 1.0 mL 0.5 M HEPES/KOH, pH 8.0 • 0.5 mL 1.0 M KCl • 0.2 mL 1.0 M MgCl2 • 1.0 mL 100 mM ATP (disodium salt, pH 8.0 with KOH) • 0.1 mL 50 mM methionine • 0.1 mL NEN [methyl-^14C]methionine • 6.6 mL H2O • 25 mM EDTA pH 8.0 stop for assays.
45 μl of assay mix was added to an Eppendorf tube and 5 μL of enzyme (normalized data shown in Table 13. The reaction was incubated at room temperature (or 25° C.) for a desired period (1 to 10 minutes). The reaction was stopped with the addition of 150 μL of 25 mM EDTA. 100 μL of the reaction was spotted onto a 2.5 cm diameter Whatman P-81 phosphocellulose filter circle (labeled in pencil). The filters were washed with 3 L of distilled water, air-dried and placed in scintillation vials with aquasol. The emissions were counted using a window that extends from ^14C to about 0. Assay efficiency and quench levels were determined by adding a known amount of counts of pure ^14C-SAM and processing through the whole procedure. Backgrounds are typically<100 cpm (total counts ca. 10^5 cpm per reaction).

The test system of data set [2] is MetK. The note with it: literature reference; cited from earlier work.
Setting [3] is: control (no Met or SAM), U = formation of 1 μmole of CoA per minute at room temperature.

Residue numbers refer to the chain shown, from its start.

B1: #11 (protein, listed as Escherichia coli)
chain: MPIRVPDELPAVNFLREENVFVMTTSRAPGQEIRPLKVLILNLMPKKIETENQFLRLLSNSPLQVDIQLLRIDSRESRNTPAEHLNNFYCNFEDIQDQNFDGLIVTGAPLGLVGFNDVAYWPQIKQVLEWSKDHVTSTLSVCWAVQAALNILYGIPKQTRTEKLSGVYEHHILHPHALLTRGFDDSFLAPHSRYADFPAALIRDYTDLEILAETEEGDAYLFASKDKRIAFVTGHPEYDAQTLAQEFFRDVEAGLDPDVPYNYFPHNDPQNTPRASWRSHGNLLFTNWLNYYVYQITPYDLRHMNPTLD
Consider B1, for which the “% of specific activity retention” value in the data set with MetA (control) is 100%; in the data set with MetA (w/10 mM SAM), 82%; in the data set on MetA (w/ 100 mM Met), 94%; in the data set with MetA (w/ 300 mM Met) it was 56%; in the data set on MetA (w/ 300 mM Met, listed as metA #11) it was 55%. Besides, the “Specific activity (U/mg)” value was 479 U/mg in the data set on MetA (setting [3]), 395 U/mg in the data set with MetA (w/10 mM SAM), 451 U/mg in the data set with MetA (w/ 100 mM Met) and 282 U/mg in the data set on MetA (w/ 300 mM Met). Further, in the data set on MetA (methionine and SAM inhibition), the “feed-back inhibition resistance compared to the wild type enzyme” value is recorded as “most resistant”.

B2: Gly 77 Val (protein, UniProt P0A817 2-384, looked up, variant G77V)
S-adenosylmethionine synthase: AKHLFTSESVSEGHPDKIADQISDAVLDAILEQDPKARVACETYVKTGMVLVGGEITTSAWVDIEEITRNTVREIVYVHSDMGFDANSCAVLSAIGKQSPDINQGVDRADPLEQGAGDQGLMFGYATNETDVLMPAPITYAHRLVQRQAEVRKNGTLPWLRPDAKSQVTFQYDDGKIVGIDAVVLSTQHSEEIDQKSLQEAVMEEIIKPILPAEWLTSATKFFINPTGRFVIGGPMGDCGLTGRKIIVDTYGGMARHGGGAFSGKDPSKVDRSAAYAARYVAKNIVAAGLADRCEIQVSYAIGVAEPTSIMVETFGTEKVPSEQLTLLVREFFDLRPYGLIQMLDLLHPIYKETAAYGHFGREHFPWEKTDKAQLLRDAAGLK
With B2, in the data set on MetK [1], the “Activity (CPM SAMe/ μg purified protein/min)” value was 6.9 CPM SAMe/ μg purified protein/min.

B3: Cys 90 Ser (protein, UniProt P0A817 2-384, looked up, variant C90S)
S-adenosylmethionine synthase: B2 S-adenosylmethionine synthase with V76G, C89S
For B3, in the data set with MetK [1], the “Activity (CPM SAMe/ μg purified protein/min)” value is listed as 23.2 CPM SAMe/ μg purified protein/min. Also, in the data set with MetK [2], the “Expected Effect on SAMe synth: % of WT activity” value was “Only 10% of WT”.

B4: Lys 245 Met (protein, UniProt P0A817 2-384, looked up, variant K245M)
S-adenosylmethionine synthase: B2 S-adenosylmethionine synthase with V76G, K245M
In the case of B4, in the data set with MetK [1], the “Activity (CPM SAMe/ μg purified protein/min)” value is on record as 2.5 CPM SAMe/ μg purified protein/min. The “Expected Effect on SAMe synth: activity reduced / lower activity than WT” value with MetK [2] was 42,000 fold.

B5: WT control: wild type C-terminal His-tagged MetK protein used as a control (protein, UniProt P0A817 2-384, looked up)
S-adenosylmethionine synthase: B2 S-adenosylmethionine synthase with V76G
modifications: C-terminal His tag
For B5, in the data set with MetK [1], the “Activity (CPM SAMe/ μg purified protein/min)” value was 995.4 CPM SAMe/ μg purified protein/min.

B6: Asp 271 Ala (protein, UniProt P0A817 2-384, looked up, variant D271A)
S-adenosylmethionine synthase: B2 S-adenosylmethionine synthase with V76G, D271A
On to B6, for which the “Activity (CPM SAMe/ μg purified protein/min)” value with MetK [1] is 0.4 (not duplicated) CPM SAMe/ μg purified protein/min. In addition, in the data set with MetK [2], the “Expected Effect on SAMe synth: kcat reduction” value is listed as “kcat reduction of ~ 103 fold”.

B7: Asp 16 Asn (protein, UniProt P0A817 2-384, looked up, variant D16N)
S-adenosylmethionine synthase: B2 S-adenosylmethionine synthase with D16N, V76G
With B7, the “Activity (CPM SAMe/ μg purified protein/min)” value in the data set on MetK [1] is given as 2.5 CPM SAMe/ μg purified protein/min. The “Expected Effect on SAMe synth: kcat reduction” value in the data set with MetK [2] is given as “kcat reduction of ~ 103 fold”.

B8: His 14 Asn (protein, UniProt P0A817 2-384, looked up, variant H14N)
S-adenosylmethionine synthase: B2 S-adenosylmethionine synthase with H14N, V76G
On to B8, for which the “Activity (CPM SAMe/ μg purified protein/min)” value in the data set on MetK [1] is on record as 7.7 CPM SAMe/ μg purified protein/min. Besides, in the data set on MetK [2], the “Expected Effect on SAMe synth: activity reduced / lower activity than WT” value is listed as “Activity reduced ~ 104 fold”.

B9: Asp 118 Asn (protein, UniProt P0A817 2-384, looked up, variant D118N)
S-adenosylmethionine synthase: B2 S-adenosylmethionine synthase with V76G, D118N
Take B9: the “Activity (CPM SAMe/ μg purified protein/min)” value in the data set with MetK [1] is recorded as 1.3 CPM SAMe/ μg purified protein/min. Also, in the data set on MetK [2], the “Expected Effect on SAMe synth: kcat reduction” value was “kcat reduction of ~ 103 fold”.

B10: Cys 90 Ala (protein, UniProt P0A817 2-384, looked up, variant C90A)
S-adenosylmethionine synthase: B2 S-adenosylmethionine synthase with V76G, C89A
Turning to B10, the “Activity (CPM SAMe/ μg purified protein/min)” value with MetK [1] is “Same as WT”. In addition, the “Expected Effect on SAMe synth: % of WT activity” value in the data set with MetK [2] is on record as “Only 10% of WT”.

B11: WT Untagged: untagged wild type MetK protein, Markham lab (protein, UniProt P0A817 2-384, looked up)
S-adenosylmethionine synthase: B2 S-adenosylmethionine synthase with V76G
On to B11, for which the “Activity (CPM SAMe/ μg purified protein/min)” value with MetK [1] is on record as 5600 CPM SAMe/ μg purified protein/min.

B12: Asp 238 Asn (protein, UniProt P0A817 2-384, looked up, variant D238N)
S-adenosylmethionine synthase: B2 S-adenosylmethionine synthase with V76G, D238N
In the case of B12, in the data set with MetK [1], the “Activity (CPM SAMe/ μg purified protein/min)” value is recorded as 1.9 CPM SAMe/ μg purified protein/min. Also, the “Expected Effect on SAMe synth: kcat reduction” value in the data set with MetK [2] was “kcat reduction of ~ 103 fold”.

B13: w.t.: wild type E. coli MetA enzyme (homoserine succinyltransferase), C-terminus His tag, purified (protein, UniProt P07623 2-309, looked up)
Homoserine …: PIRVPDELPAVNFLREENVFVMTTSRASGQEIRPLKVLILNLMPKKIETENQFLRLLSNSPLQVDIQLLRIDSRESRNTPAEHLNNFYCNFEDIQDQNFDGLIVTGAPLGLVEFNDVAYWPQIKQVLEWSKDHVTSTLFVCWAVQAALNILYGIPKQTRTEKLSGVYEHHILHPHALLTRGFDDSFLAPHSRYADFPAALIRDYTDLEILAETEEGDAYLFASKDKRIAFVTGHPEYDAQTLAQEFFRDVEAGLDPDVPYNYFPHNDPQNTPRASWRSHGNLLFTNWLNYYVYQITPYDLRHMNPTLD
modifications: C-terminal His tag
notes: wild type E. coli MetA enzyme (homoserine succinyltransferase), C-terminus His tag, purified
For B13, the “% of specific activity retention” value in the data set on MetA (control) came to 100%; with MetA (w/10 mM SAM), 2.9%; in the data set on MetA (w/ 100 mM Met), 7.6%. The “Specific activity (U/mg)” value with MetA (setting [3]) is reported as 386 U/mg; with MetA (w/10 mM SAM), 11 U/mg; with MetA (w/ 100 mM Met), 29 U/mg.
